Experimental data as given in publication PMC11169542, “A probe for NIR-II imaging and multimodal analysis of early Alzheimer’s disease by targeting CTGF” (Nature Communications, 2024).
Ends that are not written are not given here.

T1: recombinant Human CTGF protein (connective tissue growth factor) (human, UniProt P29279 27-349)
T1 construct: connective tissue growth factor (CTGF), human, recombinant; source: bought: Abcam, Cat#ab283457
T1 sequence (looked up): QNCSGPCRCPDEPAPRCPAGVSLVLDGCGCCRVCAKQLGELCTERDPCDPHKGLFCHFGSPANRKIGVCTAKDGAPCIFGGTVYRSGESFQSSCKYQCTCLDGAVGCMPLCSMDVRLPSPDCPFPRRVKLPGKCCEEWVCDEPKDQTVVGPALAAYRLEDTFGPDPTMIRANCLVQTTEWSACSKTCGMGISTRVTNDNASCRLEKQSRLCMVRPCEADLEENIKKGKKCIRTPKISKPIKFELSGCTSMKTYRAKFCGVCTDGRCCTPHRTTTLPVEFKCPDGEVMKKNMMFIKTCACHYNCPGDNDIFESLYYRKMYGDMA


Molecular target: T1, recombinant Human CTGF protein …
Test: SPR; BIAcore 8K+; recombinant human CTGF immobilised on a CM5 chip by amine coupling; eluent PBS with 0.005% Tween 20; DAG 0.5-16 μM or DGC 0.01-0.16 μM; 25 °C
Conditions: both partners purified

| Binder | Kd [µM] |
| --- | --- |
| CDAGRKQKC (also: cyclic peptide, ring not given here, CTGF-targeting peptide DAG; also called free DAG; DAG peptide; source: synthetic peptide (solid-phase method, Beijing Scilight Biotechnology LLC, purity 95%)) [cyclic peptide Cys-Asp-Ala-Gly-Arg-Lys-Gln-Lys-Cys (DAG)] | 22.3 |
| CDAGRKQKC (other, also: Au26 nanocluster bound via Cys sulfhydryl Au-S bonds, cyclic, ring closure not given here, DAG peptide, eight copies on one Au26 gold nanocluster; One Au26 gold nanocluster coated by eight DAG peptides (by MALDI-TOF-MS); also called CTGF-targeting peptide-coated gold nanocluster; source: synthesised from DAG peptide and HAuCl4 at 55 °C, purified by ultrafiltration (MWCO 3 kDa)) [DGC probe (peptide-coated gold nanocluster, Au26DAG8)] | 0.0219 |
